B1: 항-CXCR4 키메라 Mab c515H7 (antibody, human IgG1, kappa, V domains shown)
VH: EVNLVESGGGLVQPGGSLRLSCATSGFTFTDNYMSWVRQPPGKALEWLGFIRNKANGYTTDYSASVRGRFTISRDNSQSILYLQMNALRAEDSATYYCARDVGSNYFDYWGQGTTLTVSS
VL: DIVMSQSPSSLAVSAGEKVTMSCKSSQSLFNSRTRKNYLAWYQQKPGQSPKLLIYWASARDSGVPARFTGSGSETYFTLTISRVQAEDLAVYYCMQSFNLRTFGQGTKVEIKR
B2: hz515H7 VH1 D76N VL2.1 (antibody, V domains shown)
VH: EVQLVESGGGLVQPGRSLRLSCTASGFTFTDNYMSWVRQAPGKGLEWVGFIRNKANGYTTEYAASVKGRFTISRDNSKSIAYLQMNSLKTEDTAVYYCARDVGSNYFDYWGQGTLVTVSS
VL: DIVMTQSPDSLAVSLGERATMSCKSSQSLFNSRTRKNYLAWYQQKPGQPPKLLIYWASARDSGVPDRFSGSGSETYFTLTISRVQAEDLAVYYCMQSFNLRTFGQGTKVEIKR
B3: 항-CXCR4 Mab 515H7 (마우스 모노클론 항체) (antibody, V domains shown)
VH: EVNLVESGGGLVQPGGSLRLSCATSGFTFTDNYMSWVRQPPGKALEWLGFIRNKANGYTTDYSASVRGRFTISRDNSQSILYLQMNALRAEDSATYYCARDVGSNYFDYWGQGTTLTVSS
VL: DIVMSQSPSSLAVSAGEKVTMSCKSSQSLFNSRTRKNYLAWYQQKPGQSPKLLIYWASARDSGVPARFTGSGSETYFTLTISRVQAEDLAVYYCMQSFNLRTFGGGTKLEIK
B4: hz515H7 VH1 D76N VL2.2 (antibody, V domains shown)
VH: EVQLVESGGGLVQPGRSLRLSCTASGFTFTDNYMSWVRQAPGKGLEWVGFIRNKANGYTTEYAASVKGRFTISRDNSKSIAYLQMNSLKTEDTAVYYCARDVGSNYFDYWGQGTLVTVSS
VL: DIVMTQSPDSLAVSLGERATMSCKSSQSLFNSRTRKNYLAWYQQKPGQPPKLLIYWASARDSGVPDRFTGSGSETYFTLTISRVQAEDVAVYYCMQSFNLRTFGQGTKVEIKR
B5: hz515H7 VH1 D76N VL2 (antibody, V domains shown)
VH: EVQLVESGGGLVQPGRSLRLSCTASGFTFTDNYMSWVRQAPGKGLEWVGFIRNKANGYTTEYAASVKGRFTISRDNSKSIAYLQMNSLKTEDTAVYYCARDVGSNYFDYWGQGTLVTVSS
VL: DIVMTQSPSSLAVSLGERATMSCKSSQSLFNSRTRKNYLAWYQQKPGQSPKLLIYWASARDSGVPARFTGSGSETYFTLTISRVQAEDLAVYYCMQSFNLRTFGQGTKVEIKR
notes: also called hz515H7 VH1 D76N-VL2 Mab; 인간화 515H7 Mab
B6: hz515H7 VH1 D76N VL2.3 (antibody, V domains shown)
VH: EVQLVESGGGLVQPGRSLRLSCTASGFTFTDNYMSWVRQAPGKGLEWVGFIRNKANGYTTEYAASVKGRFTISRDNSKSIAYLQMNSLKTEDTAVYYCARDVGSNYFDYWGQGTLVTVSS
VL: DIVMTQSPDSLAVSLGERATMSCKSSQSLFNSRTRKNYLAWYQQKPGQPPKLLIYWASARDSGVPDRFTGSGSETYFTLTISSLQAEDLAVYYCMQSFNLRTFGQGTKVEIKR
B7: 항-CXCR4 Mab 301aE5 (마우스 모노클론 항체) (antibody, V domains shown)
VH: QVQLKESGPGLVAPSQSLSITCTVSGFSLTDYGVYWVRQPPGKGLEWLGMIWGDGTTDYNSALKSRLSISKDNSKSQVFLKMNTLQTDDTARYYCARGRQFGFDYWGQGTTLTVSS
VL: DIVMSQSPSSLAVSAGEKVTMRCKSSQSLFNSRTRKNYLAWYQQKPGQSPKLLIFWASIRESGVPDRFTGSGSGTDFTLTISSVQAEDLAVYYCKQSYNLRTFGGGTKLEIK
B8: 515H7 인간화 VH 변형체 1 (VH1) + 마우스/키메라 VL (cVL) (antibody, human IgG1, kappa)
heavy: not shown
light: DIVMSQSPSSLAVSAGEKVTMSCKSSQSLFNSRTRKNYLAWYQQKPGQSPKLLIYWASARDSGVPARFTGSGSETYFTLTISRVQAEDLAVYYCMQSFNLRTFGQGTKVEIKRTVAAPSVFIFPPSDEQLKSGTASVVCLLNNFYPREAKVQWKVDNALQSGNSQESVTEQDSKDSTYSLSSTLTLSKADYEKHKVYACEVTHQGLSSPVTKSFNRGEC
notes: also called VH1 cVL; VH 변형체 1 (VH1) 마우스 VL 조합
B9: hz515H7 VH1 VL2 (VH 변형체 1 + VL 변형체 2) (antibody, human IgG1, kappa)
heavy: not shown
light: DIVMTQSPSSLAVSLGERATMSCKSSQSLFNSRTRKNYLAWYQQKPGQSPKLLIYWASARDSGVPARFTGSGSETYFTLTISRVQAEDLAVYYCMQSFNLRTFGQGTKVEIKRTVAAPSVFIFPPSDEQLKSGTASVVCLLNNFYPREAKVQWKVDNALQSGNSQESVTEQDSKDSTYSLSSTLTLSKADYEKHKVYACEVTHQGLSSPVTKSFNRGEC

Tests used:
[1] = target: T1, 인간 CXCR4 (케모카인 (C-X-C 모티브) 수용체 4) (human, UniProt P61073 1-352); experiment: cell-based or functional assay
T1 sequence (P61073 whole entry): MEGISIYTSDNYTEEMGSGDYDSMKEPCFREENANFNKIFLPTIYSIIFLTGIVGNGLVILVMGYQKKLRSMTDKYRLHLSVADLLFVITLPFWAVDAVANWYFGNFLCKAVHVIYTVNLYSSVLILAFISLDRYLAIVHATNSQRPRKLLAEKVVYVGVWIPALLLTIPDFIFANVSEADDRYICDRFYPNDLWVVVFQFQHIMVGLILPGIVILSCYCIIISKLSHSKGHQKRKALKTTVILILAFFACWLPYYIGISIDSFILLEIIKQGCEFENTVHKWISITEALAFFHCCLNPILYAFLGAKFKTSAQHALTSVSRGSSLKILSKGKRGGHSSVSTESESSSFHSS

[2] = target: CXCR4/Rluc + CXCR4/YFP (HEK293 세포의 CXCR4 동종이량체 BRET 파트너) (human; Renilla reniformis); experiment: cell-based or functional assay
Chain of CXCR4/Rluc + CXCR4/YFP (HEK293 세포의 CXCR4 동종이량체 BRET 파트너) (human; Renilla reniformis) (chain, as listed by the source, chain 1 of 2): as the sequence (P61073 whole entry) above
Chain of CXCR4/Rluc + CXCR4/YFP (HEK293 세포의 CXCR4 동종이량체 BRET 파트너) (human; Renilla reniformis) (chain, as listed by the source, chain 2 of 2): as the sequence (P61073 whole entry) above

[3] = target: T1, 인간 CXCR4 (케모카인 (C-X-C 모티브) 수용체 4); experiment: FACS on NIH3T3-CXCR4 cells (legend of Fig. 21)
[4] = target: T1, 인간 CXCR4 (케모카인 (C-X-C 모티브) 수용체 4); experiment: competition flow cytometry on NIH3T3-CXCR4 cells; competitor biotinylated mouse 515H7
[5] = target: T1, 인간 CXCR4 (케모카인 (C-X-C 모티브) 수용체 4); experiment: competition flow cytometry on NIH3T3-CXCR4 cells; competitor biotinylated mouse 515H7 (legend of Fig. 19)

Row | Binder | SDF-1-유도성 BRET 증가의 저해 [2] | SDF-1-유도성 BRET 증가의 저해 백분율 [2] | binding result [3] | other results
1 | B1 | 96% |  |  | IC50, 89.6 복제 저해, 마라비록 2 μg/ml 첨가 시 [1]: 0.2 µg/mL; IC50, 인간 PBMC에서 이중 친화성 X4R5 바이러스 89.6 복제 저해 (다수 회차 검정법) [1]: 2 µg/mL
2 | B2 |  | 65% | binds | 
3 | B3 | 69% |  |  | 
4 | B4 |  | 33% | binds | 
5 | B5 |  | ~88% | binds | 
6 | B6 |  | 21% | binds | 
7 | B7 | 69% |  |  | 
8 | B8 |  |  |  | binding result [4]: binds
9 | B9 |  |  |  | binding result [5]: binds
